Test results reported in patent US11338018B2, “Adrenocorticotropic hormone-based pharmaceutical formulations and methods for fabricating and using thereof” (Harrow IP, LLC, priority 2016, dated 2022).

Assay: Comparative potency (USP corticotropin units) to assess formulation shelf stability
Format: physicochemical
Parameters: key to Potency: “Failed” refers to the potency after the testing being outside of the USP Corticotropin Units 80-125% range required by the U.S. Pharmacopeia.; “Passed” refers to the potency after the testing being within the 80-125% range required by the U.S. Pharmacopeia
Experimental: The term “potency” is defined in accordance with the U.S. Pharmacopeia (USP) and refers to the quantity of an active pharmaceutical component in the composition. In accordance with the requirements of the USP, the potency that is required of the corticotropin compositions described below is not less than 80.0 percent and not more than 125.0 percent of the potency stated on the label in USP corticotropin units.
Several compositions were prepared according to the methods illustrated in Examples 1-3. Table 1 provides a comparison of their respective potencies for showing shelf stability. The terms “recombinant porcine” and “recombinant human” refer to synthetic ACTH having the same amino acid sequence as the naturally occurring polypeptide derived from pigs and humans, respectively. […] Unexpectedly, it was observed that addition of L-Methionine in combination with Mannitol improved the shelf stability of Corticotropin Active Pharmaceutical Ingredient. FIGS. 1-4 show potencies of various exemplary compositions from Day 0 to Day 365.

Sequence | Potency (Cysteine, 2 mg/mL, Mannitol 50 mg/mL, pH 4.5-6.5, after 60 days) | label amount remaining intact (Cysteine, 2 mg/mL, Mannitol 50 mg/mL, pH 4.5-6.5, day 90) | Potency (Methionine, 2 mg/mL, Mannitol 50 mg/mL, pH 4.5-6.5, stable after 180 days) | Potency (Cysteine, 1 mg/mL, Mannitol None, pH 4.5-6.5, after 30 days) | Potency (Cysteine, 2 mg/mL, Mannitol 50 mg/mL, pH 4.0-6.0, after 10 days, both accelerated (room temperature) and refrigerated conditions) | Potency (Cysteine, 2 mg/mL, Mannitol 50 mg/mL, pH 4.5-6.6, after 30 days) | Potency (Methionine, 2 mg/mL, Mannitol 50 mg/mL, pH 4.0-6.0, after 10 days, both accelerated (room temperature) and refrigerated conditions) | Potency (Methionine, 3 mg/mL + POLOXAMER 188, 3 mg/mL, Mannitol 50 mg/mL, pH 5.0-6.5, stable after 360 days) | Potency (Methionine, 3 mg/mL, Mannitol 50 mg/mL, pH 4.0-6.0, stable after 365 days)
SYSMEHFRWGKPVGKKRRPVKVYPNGAEDESAEAFPLEF [Recombinant human] | Failed after | ^3Followed by even more substantial failure by day 90 (when only about 16.9% of the label amount remaining intact). | Passed^4, (“Passed” refers to the potency after the testing being within the 80-125% range required by the U.S. Pharmacopeia.) |  |  |  |  |  | 
SYSMEHFRWGKPVGKKRRPVKVYPNGAEDELAEAFPLEF (Sythetic construct) [Synthetic porcine] |  |  |  | Failed^1 after | Failed after | Failed after | Failed after | Passed, (“Passed” refers to the potency after the testing being within the 80-125% range required by the U.S. Pharmacopeia.) | Passed, (“Passed” refers to the potency after the testing being within the 80-125% range required by the U.S. Pharmacopeia.)
